Reference: patent publication EP1746106A2 (Biogen Idec MA Inc., dated 2007)

T1: N-terminus FLAG-tagged human full length TACI expressed on 293EBNA cells (pJST552) (human, UniProt O14836 1-293)
T1 construct: also called FLAG-tagged full length human TACI; flag-tagged full length TACI; not shown: N-terminal FLAG tag
T1 sequence: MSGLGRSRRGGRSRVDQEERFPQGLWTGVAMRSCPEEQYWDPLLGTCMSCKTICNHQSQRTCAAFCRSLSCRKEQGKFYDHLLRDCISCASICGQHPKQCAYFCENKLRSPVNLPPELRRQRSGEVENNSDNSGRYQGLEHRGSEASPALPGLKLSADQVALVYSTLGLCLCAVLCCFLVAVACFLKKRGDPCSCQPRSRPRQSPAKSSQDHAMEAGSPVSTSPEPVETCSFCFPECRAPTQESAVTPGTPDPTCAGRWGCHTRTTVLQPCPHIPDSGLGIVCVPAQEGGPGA


What was measured:
[1] = biological target: T1, N-terminus FLAG-tagged human full …; test: flow cytometry on 293EBNA cells transfected with FLAG-tagged full length human TACI; detection with rabbit anti-mAPRIL Rb1532 and anti-rabbit IgG-PE
[2] = biological target: T2, FLAG-tagged soluble muBAFF (murine, UniProt Q9WU72 127-309, limits assumed); test: co-immunoprecipitation with protein A-Sepharose, anti-FLAG M2 Western blot
T2 construct: Anti-FLAG M2-purified, 500 ng used; not shown: FLAG tag
T2 sequence (Q9WU72 127-309 limits assumed): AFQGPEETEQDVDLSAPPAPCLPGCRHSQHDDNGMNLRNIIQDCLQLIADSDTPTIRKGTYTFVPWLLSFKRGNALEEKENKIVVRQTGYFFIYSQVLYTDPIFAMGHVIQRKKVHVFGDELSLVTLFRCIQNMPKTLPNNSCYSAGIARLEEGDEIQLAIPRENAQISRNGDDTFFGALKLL

binding result [1]	binding result [2]	Binder
binds	–	myc-tagged murine APRIL (ligand, Glycosylated (expressed in Pichia pastoris); the letters do not carry the glycans., Purified from P. pastoris supernate; also called myc-muAPRIL; Myc-Murine APRIL A88) EQKLISEEDLNGGGGSKELAVLTQKHKKKHSVLHLVPVNITSKDSDVTEVMWQPVLRRGRGLEAQGDIVRVWDTGIYLLYSQVLFHDVTFTMGQVVSREGQGRRETLFRCIRSMPSDPDRAYNSCYSAGVFHLHQGDIITVKIPRANAKLSLSPHGTFLGFVKL
–	no binding (tested: 500 ng)	human TACI(1-160)-Ig fusion protein (Fc fusion, Used as conditioned medium (Optimem) from transfected 293 cells; also called hTACI(1-160)-Ig; PS882 product; not shown: human IgG-Fc) MSGLGRSRRGGRSRVDQEERFPQGLWTGVAMRSCPEEQYWDPLLGTCMSCKTICNHQSQRTCAAFCRSLSCRKEQGKFYDHLLRDCISCASICGQHPKQCAYFCENKLRSPVNLPPELRRQRSGEVENNSDNSGRYQGLEHRGSEASPALPGLKLSADQV
